# Source: patent US20240279288A1 (ANYANG INSTITUTE OF SINO COTTON INDUSTRY INNOVATION, published 2024)
# T1: NMYC (human, UniProt P04198 1-464)
# T1 construct: In pGADT7 (AD fusion) for yeast two hybrid
# T1 sequence (looked up): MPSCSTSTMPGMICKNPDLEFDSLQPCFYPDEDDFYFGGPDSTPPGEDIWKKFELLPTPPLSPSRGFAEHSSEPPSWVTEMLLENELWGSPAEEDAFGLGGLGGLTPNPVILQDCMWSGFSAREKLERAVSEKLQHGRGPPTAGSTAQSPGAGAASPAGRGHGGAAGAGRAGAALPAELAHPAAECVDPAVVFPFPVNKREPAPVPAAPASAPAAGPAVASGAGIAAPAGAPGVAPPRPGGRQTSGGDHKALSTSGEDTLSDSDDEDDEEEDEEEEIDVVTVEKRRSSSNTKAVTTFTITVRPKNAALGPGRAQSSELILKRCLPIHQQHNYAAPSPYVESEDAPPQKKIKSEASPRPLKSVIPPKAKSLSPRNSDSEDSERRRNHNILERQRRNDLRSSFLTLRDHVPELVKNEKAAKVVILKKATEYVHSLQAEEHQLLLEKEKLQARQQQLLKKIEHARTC
# T2: GhNINJA (cotton)
# T2 chain: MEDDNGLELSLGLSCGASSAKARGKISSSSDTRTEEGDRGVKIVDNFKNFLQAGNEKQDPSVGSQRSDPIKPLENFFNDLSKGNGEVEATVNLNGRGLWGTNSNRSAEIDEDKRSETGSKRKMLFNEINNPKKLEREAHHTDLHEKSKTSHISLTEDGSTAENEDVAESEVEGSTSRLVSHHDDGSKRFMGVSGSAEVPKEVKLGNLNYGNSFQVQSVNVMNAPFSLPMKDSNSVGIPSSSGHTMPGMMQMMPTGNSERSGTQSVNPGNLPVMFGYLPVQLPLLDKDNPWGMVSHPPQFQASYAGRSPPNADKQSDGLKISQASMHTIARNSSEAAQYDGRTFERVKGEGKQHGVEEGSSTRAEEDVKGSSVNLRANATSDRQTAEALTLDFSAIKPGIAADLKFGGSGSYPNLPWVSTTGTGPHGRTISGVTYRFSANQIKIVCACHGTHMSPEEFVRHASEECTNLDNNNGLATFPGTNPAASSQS
# T3: GhTPL (cotton)
# T3 chain: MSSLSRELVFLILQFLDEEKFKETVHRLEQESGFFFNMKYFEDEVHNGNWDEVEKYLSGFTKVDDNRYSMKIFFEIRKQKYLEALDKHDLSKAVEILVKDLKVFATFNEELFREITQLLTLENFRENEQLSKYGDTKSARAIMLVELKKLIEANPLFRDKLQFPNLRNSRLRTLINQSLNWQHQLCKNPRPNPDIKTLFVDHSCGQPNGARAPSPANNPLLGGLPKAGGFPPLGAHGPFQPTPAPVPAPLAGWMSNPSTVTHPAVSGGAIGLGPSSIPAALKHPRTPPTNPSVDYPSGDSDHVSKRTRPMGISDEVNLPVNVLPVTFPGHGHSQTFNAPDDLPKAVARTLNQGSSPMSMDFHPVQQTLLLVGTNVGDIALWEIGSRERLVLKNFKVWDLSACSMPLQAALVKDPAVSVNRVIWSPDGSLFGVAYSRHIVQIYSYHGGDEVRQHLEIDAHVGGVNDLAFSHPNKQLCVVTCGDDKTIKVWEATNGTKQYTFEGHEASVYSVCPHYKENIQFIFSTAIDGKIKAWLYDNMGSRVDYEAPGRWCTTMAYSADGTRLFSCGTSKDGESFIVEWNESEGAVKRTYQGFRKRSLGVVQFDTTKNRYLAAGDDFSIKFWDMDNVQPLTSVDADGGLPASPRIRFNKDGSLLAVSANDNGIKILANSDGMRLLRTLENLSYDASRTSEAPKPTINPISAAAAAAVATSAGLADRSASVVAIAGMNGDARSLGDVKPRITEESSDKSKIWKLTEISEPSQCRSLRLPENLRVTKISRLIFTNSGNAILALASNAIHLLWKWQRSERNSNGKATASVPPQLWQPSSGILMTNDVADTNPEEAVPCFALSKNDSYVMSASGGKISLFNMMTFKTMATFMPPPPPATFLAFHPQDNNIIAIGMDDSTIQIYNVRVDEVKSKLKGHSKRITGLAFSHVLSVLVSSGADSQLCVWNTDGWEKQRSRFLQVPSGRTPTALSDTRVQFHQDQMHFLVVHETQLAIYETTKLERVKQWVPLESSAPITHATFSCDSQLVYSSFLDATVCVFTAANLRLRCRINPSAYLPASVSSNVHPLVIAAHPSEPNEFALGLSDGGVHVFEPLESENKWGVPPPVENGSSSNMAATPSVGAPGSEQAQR
# T4: GhHDA6 (cotton)
# T4 chain: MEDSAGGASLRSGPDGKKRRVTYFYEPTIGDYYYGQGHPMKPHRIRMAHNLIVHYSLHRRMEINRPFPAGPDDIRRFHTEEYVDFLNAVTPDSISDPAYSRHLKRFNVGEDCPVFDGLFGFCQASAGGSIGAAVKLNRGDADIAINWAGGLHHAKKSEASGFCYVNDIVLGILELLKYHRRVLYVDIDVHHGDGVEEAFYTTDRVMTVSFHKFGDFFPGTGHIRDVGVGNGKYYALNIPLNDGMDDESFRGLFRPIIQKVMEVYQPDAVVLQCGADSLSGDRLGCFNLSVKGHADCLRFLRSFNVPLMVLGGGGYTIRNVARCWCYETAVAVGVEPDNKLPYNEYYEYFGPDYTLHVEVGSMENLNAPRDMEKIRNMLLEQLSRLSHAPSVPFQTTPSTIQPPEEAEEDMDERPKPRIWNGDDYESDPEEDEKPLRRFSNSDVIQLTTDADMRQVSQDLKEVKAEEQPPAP
# T5: GhCOI1 (cotton)
# T5 chain: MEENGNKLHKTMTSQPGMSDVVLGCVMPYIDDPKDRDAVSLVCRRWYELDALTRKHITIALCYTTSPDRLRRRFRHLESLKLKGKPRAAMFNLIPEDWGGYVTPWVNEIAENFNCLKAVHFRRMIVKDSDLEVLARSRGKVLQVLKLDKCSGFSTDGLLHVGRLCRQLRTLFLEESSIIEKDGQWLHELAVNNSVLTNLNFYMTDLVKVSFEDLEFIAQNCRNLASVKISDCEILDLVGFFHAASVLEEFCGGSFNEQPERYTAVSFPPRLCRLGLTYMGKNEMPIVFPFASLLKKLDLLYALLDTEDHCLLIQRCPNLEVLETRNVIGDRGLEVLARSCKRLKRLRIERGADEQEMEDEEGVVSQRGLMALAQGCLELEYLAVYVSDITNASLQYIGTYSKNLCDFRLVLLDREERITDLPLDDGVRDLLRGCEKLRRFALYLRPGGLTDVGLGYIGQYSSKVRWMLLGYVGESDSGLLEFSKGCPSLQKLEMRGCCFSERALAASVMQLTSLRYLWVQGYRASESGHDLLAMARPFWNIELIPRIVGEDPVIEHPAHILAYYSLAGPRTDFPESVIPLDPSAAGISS
# What was measured:
# [1] = biological target: T1, NMYC; test: yeast two hybrid
# [2] = biological target: T6, uPAR-D1D2 (Homo sapiens (Human), UniProt Q03405 23-335, limits assumed); test: yeast two hybrid
# T6 construct: It is tied to 'D3 domain deficient uPAR' by its name only; also called D3 domain deficient uPAR
# [3] = biological target: T2, GhNINJA; test: yeast two hybrid
# [4] = biological target: T3, GhTPL; test: yeast two hybrid
# [5] = biological target: T4, GhHDA6; test: yeast two hybrid
# [6] = biological target: T7, c-Myc-150aa (human, UniProt P01106 1-150); test: luciferase complementation (FIG. 13 E)
# T7 construct: Also tested by LUC, for which the construct is not described; also called first 150 amino acids truncated c-Myc
# [7] = biological target: T8, c-Myc-215aa (human, UniProt P01106 1-215); test: luciferase complementation (FIG. 13 E)
# T8 construct: Also tested by LUC, for which the construct is not described
# [8] = biological target: T5, GhCOI1; test: yeast two hybrid, JA-Ile in the medium
# Description: The study on Arabidopsis had shown that the inhibition of JAZ protein on JA signaling was mainly achieved by inhibiting the transcription factor function of MYC, which had been experimentally verified by us in cotton. Based on the phylogenetic tree of Arabidopsis and cotton JAZs, we screened 6 cotton JAZs (GhJAZ1, GhJAZ7, GhJAZ9, GhJAZ10, GhJAZ11 and GhJAZ31), which were analyzed with GhMYC2, GhNINJA, GhTPL, GhHDA6, and GhCOI1 for yeast two hybrid. The amino acid sequence of GhJAZ1 was set forth in SEQ ID No. 4, and the corresponding encoding gene sequence was set forth in SEQ ID No. 39; the amino acid sequence of GhJAZ7 was set forth in SEQ ID No. 7, and the corresponding encoding gene sequence was set forth in SEQ ID No. 42; the amino acid sequence of GhJAZ9 was set forth in SEQ ID No. 2, and the corresponding encoding gene sequence was set forth in SEQ ID No. 37; the amino acid sequence of GhJAZ10 was set forth in SEQ ID No. 3, and the corresponding encoding gene sequence was set forth in SEQ ID No. 38; the amino acid sequence of GhJAZ11 was set forth in SEQ ID No. 5, and the corresponding encoding gene sequence was set forth in SEQ ID No. 40; and the amino acid sequence of GhJAZ31 was set forth in SEQ ID No. 9, and the corresponding encoding gene sequence was set forth in SEQ ID No. 44. […]
# [9] = biological target: GhMYC2 (cotton); test: luciferase complementation in tobacco leaves (FIG. 5B)
# Description: The constructed plasmids were then transformed into Agrobacterium GV3101 (pSoup-p19) (Shanghai Weidi Company, Cat. No.: AC1003), and placed successively on ice for 5 min, in liquid nitrogen for 5 min, in water bath at 37° C. for 5 min, and on ice for 5 min, and then LB liquid medium was added for cultivation at 28° C. and 220 rpm for 2-3 h, followed by plating onto LB solid plates containing corresponding antibiotics (kanamycin+rifampicin) for cultivation at 28° C. for 2-3 days. Positive monoclonal clones were picked for cultivation after colonies grown out. The corresponding NLUC and CLUC vectors then were mixed and injected into tobacco leaves (1 day in the dark/1 day in the light). Luciferase substrates were applied at the infected leaves before taking images and placed in a dark room for at least 6 min to quench fluorescence, followed by observation on the Nightowl-II LB983 instrument, using IndigoBasic software under the luciferase-5 min setting conditions.
# [10] = biological target: T9, c-Myc (human, UniProt P01106 1-454, limits assumed); test: luciferase complementation in tobacco leaves (FIG. 6F)
# T9 construct: In pGADT7 (AD fusion) for yeast two hybrid, pCAMBIA-NLuc for LUC, pUC-SPYCE for BiFC; also called proto-oncogene c-Myc; full length of c-Myc
# Source text: Using the method of LUC experiment, c-Myc (NCBI accession number: NM_002467.6) was subcloned to pCAMBIA NLuc vector (Chen, H., et al. “Firefly Luciferase Complementation Imaging Assay for Protein-Protein Interactions in Plants.” Plant Physiology 146.2(2008):368-376.) between the KpnI and SalI cleavage sites, and GhJAZ1 (SEQ ID No. 39) was subcloned to pCAMBIA-CLuc vector (Chen, H., et al. “Firefly Luciferase Complementation Imaging Assay for Protein-Protein Interactions in Plants.” Plant Physiology 146.2(2008):368-376.) between the KpnI and SalI cleavage sites. The constructed recombinant plasmids verified to be positive by sequencing were transformed into Agrobacterium GV3101 (pSoup-p19) (Shanghai Weidi biology technology co., Ltd, Cat. No.: AC1003), which were co-transfected into tobacco leaves. 2-3 days after injection, the infected leaves coated with the fluorescent substrate were placed in a dark chamber of the instrument for at least 6 min before taking images to quench fluorescence, followed by observation on the Nightowl-II LB983 instrument, using IndigoBasic software under the luciferase-5 min setting conditions. Cultivation was performed after co-infection. If there is interaction, LUC luciferase is expressed, and luminescence is detected after substrate application. As shown in F in FIG. 6, GhJAZ1 interacts with c-Myc.
# T7 sequence (P01106 1-150 limits assumed): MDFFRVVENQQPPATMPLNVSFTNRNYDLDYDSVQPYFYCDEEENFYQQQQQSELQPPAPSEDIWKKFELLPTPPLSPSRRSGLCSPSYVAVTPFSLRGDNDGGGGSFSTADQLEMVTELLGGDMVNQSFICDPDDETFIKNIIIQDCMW
# T6 sequence (Q03405 other isoform, or with tags, fused parts or gaps limits assumed): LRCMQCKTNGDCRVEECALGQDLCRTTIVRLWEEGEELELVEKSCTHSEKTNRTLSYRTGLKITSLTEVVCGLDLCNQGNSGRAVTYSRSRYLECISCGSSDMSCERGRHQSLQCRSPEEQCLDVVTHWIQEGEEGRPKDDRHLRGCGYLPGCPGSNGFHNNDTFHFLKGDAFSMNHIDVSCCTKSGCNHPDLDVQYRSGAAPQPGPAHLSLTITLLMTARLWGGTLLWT
# T8 sequence (P01106 1-215 limits assumed): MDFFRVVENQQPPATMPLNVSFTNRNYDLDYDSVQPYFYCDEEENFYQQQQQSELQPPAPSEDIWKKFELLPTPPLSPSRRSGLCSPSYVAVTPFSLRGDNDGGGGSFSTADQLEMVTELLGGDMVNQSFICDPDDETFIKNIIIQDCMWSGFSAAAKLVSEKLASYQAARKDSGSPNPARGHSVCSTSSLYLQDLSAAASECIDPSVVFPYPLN
# GhMYC2 (cotton), sequence (chain, as listed by the source limits assumed): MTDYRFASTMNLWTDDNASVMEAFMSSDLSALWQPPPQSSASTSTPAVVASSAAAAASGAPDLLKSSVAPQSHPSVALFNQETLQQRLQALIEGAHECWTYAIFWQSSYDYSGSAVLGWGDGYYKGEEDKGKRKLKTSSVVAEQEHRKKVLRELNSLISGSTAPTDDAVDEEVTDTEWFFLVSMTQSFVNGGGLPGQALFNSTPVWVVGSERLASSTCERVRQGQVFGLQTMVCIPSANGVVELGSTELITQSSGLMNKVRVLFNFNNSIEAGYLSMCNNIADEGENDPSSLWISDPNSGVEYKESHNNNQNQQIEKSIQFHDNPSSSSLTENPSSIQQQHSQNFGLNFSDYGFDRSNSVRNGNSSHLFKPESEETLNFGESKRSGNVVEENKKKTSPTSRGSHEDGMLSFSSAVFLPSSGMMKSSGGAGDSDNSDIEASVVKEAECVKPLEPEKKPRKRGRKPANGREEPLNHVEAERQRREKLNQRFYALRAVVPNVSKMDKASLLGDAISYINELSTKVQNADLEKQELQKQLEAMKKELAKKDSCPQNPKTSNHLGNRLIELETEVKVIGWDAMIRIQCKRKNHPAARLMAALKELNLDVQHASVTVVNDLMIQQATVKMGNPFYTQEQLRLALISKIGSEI
# T9 sequence (P01106 whole entry, the tested form may be a part): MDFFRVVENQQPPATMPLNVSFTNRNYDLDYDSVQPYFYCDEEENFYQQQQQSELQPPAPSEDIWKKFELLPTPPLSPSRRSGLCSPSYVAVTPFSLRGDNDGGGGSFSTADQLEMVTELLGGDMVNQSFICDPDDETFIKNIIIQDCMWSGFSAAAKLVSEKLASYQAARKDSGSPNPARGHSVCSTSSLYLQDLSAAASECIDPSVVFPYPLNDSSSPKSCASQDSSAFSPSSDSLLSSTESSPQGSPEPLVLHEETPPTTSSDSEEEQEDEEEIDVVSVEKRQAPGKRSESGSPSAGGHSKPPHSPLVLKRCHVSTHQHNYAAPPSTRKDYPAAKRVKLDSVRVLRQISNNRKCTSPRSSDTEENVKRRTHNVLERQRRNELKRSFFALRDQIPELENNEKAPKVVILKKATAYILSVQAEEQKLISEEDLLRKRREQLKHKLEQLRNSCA
binder,measurement,setting,value
"GhJAZ1 (other, In yeast two hybrid it was expressed from pGBKT7 (BD fusion), in the luciferase experiment from pCAMBIA-CLuc, in BiFC from pUC-SPYNE; also called cotton JAZ1) MSSCSESTAMKPARSPEKPSFAQTCNLLSQYLKEKGSFGDLSLGMTCNVEANGTPVVPPPTMNLFPLNDKSDDVCGRNGGNPKNLTSMDLFPQQAGLASKDDSPNKLEPQTAPMTIFYGGQVIVFNDFPANKAKEIMLLASNSSSQSNNSFNPIPFTSSIARSPIESSIGVPPTSKPVHPAQRAVPGDLPIARRASLHRFLEKRKDRITAKAPYQINNSAAAPSLSGDNKSWLGLAAQSP",binding result,[1],binds
same,binding result,[2],no binding
same,binding result,[3],binds
same,binding result,[4],binds
same,binding result,[5],binds
same,binding result,[6],binds
same,binding result,[7],binds
same,binding result,[8],binds
same,binding result,[9],binds
same,binding result,[10],binds
